Target: human sortilin (R&D Systems, 3154-ST) (human, UniProt Q99523 78-755)
Test: SPR

Chain of human sortilin (R&D Systems, 3154-ST) (Q99523 78-755): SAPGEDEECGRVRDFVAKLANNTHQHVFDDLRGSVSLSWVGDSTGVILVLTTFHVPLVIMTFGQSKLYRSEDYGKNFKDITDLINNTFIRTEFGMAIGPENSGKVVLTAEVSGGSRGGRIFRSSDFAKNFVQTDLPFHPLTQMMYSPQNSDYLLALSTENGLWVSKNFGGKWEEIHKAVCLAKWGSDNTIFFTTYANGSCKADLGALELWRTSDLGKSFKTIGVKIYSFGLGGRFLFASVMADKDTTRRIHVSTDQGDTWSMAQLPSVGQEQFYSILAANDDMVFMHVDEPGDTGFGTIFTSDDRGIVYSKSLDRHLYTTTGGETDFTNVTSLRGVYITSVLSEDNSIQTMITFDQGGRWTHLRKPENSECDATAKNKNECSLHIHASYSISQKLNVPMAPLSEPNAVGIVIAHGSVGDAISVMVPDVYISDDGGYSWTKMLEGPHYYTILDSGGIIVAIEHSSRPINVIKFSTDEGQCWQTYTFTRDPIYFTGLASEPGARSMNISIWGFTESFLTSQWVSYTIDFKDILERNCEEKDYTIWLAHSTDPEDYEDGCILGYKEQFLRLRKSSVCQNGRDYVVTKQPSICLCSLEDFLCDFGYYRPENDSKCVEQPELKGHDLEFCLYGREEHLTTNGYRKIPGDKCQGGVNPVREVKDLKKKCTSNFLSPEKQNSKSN

Kd: 26 nM
Binder: LRREAPRWDAPLRDPGLRQLL [ABD-PGRNC21* (His6-ABD035-PGRNC21*)]

Source: PMC11342335 (2024)
